Where a chain is given by its changes, count along the chain named.
B1: Chimeric E1A9C8A7 antibody (antibody, human IgG4 S228P, kappa, V domains shown)
VH: QVQLQQSGAEVVRPGVSVRISCKGSGYTFSDYVMHWMKQSHGESLEWIGVISTYHIPAVYNQKFKGKATMTVDKSSSTVYLELARLTSEDSAIYYCAREVYGDSYYFDVWGAGTTVTVSS
VL: DVLMTQIPLSLPVSLGDQVSISCRSSQSIVHSNGNTYLEWYLQKPGQSPKLLIYKVSNRFSGVPDRFSGSGSGTDFTLKISRVEAEDLGVYYCFQGSHVPYTFGGGTKLEIKR
notes: also called chimeric antibody E1A9C8A7
B2: humanized antibody huE1A9C8A7-V5 (antibody, human IgG4 S228P, kappa)
heavy: not shown
light: DIVMTQTPLSLPVTPGEPASISCRSSQSIVHSNGNTYLEWYLQKPGQSPQLLIYKVSNRFSGVPDRFSGSGSGTDFTLKISRVEAEDVGVYYCFQGSHVPYTFGGGTKVEIKRTVAAPSVFIFPPSDEQLKSGTASVVCLLNNFYPREAKVQWKVDNALQSGNSQESVTEQDSKDSTYSLSSTLTLSKADYEKHKVYACEVTHQGLSSPVTKSFNRGEC
notes: Human IgG4/kappa
B3: humanized antibody huE1A9C8A7-V1 (antibody, human IgG4 S228P, kappa, V domains shown)
VH: QVQLVQSGAEVVKPGASVKISCKASGYTFSDYVMHWMRQAPGQSLEWIGVISTYHIPAVYNQKFKGKATMTVDKSTSTVYLELSSLRSEDTAVYYCAREVYGDSYYFDVWGQGTTVTVSS
VL: DIVMTQTPLSLPVTPGEPASISCRSSQSIVHSNGNTYLEWYLQKPGQSPQLLIYKVSNRFSGVPDRFSGSGSGTDFTLKISRVEAEDVGVYYCFQGSHVPYTFGGGTKVEIKR
notes: Human IgG4/kappa
B4: humanized antibody huE1A9C8A7-V2 (antibody, human IgG4 S228P, kappa, V domains shown)
VH: B3 VH with S30T
VL: B3 VL
notes: Human IgG4/kappa
B5: humanized antibody huE1A9C8A7-V4 (antibody, human IgG4 S228P, kappa, V domains shown)
VH: B3 VH with K74T
VL: B3 VL
notes: Human IgG4/kappa
B6: humanized antibody huE1A9C8A7-V6 (antibody, human IgG4 S228P, kappa)
heavy: not shown
light: B2 light
notes: Human IgG4/kappa
B7: humanized antibody huE1A9C8A7-V7 (antibody, human IgG4 S228P, kappa, V domains shown)
VH: B3 VH with S30T, M37V, S44G, K74T
VL: B3 VL
notes: Human IgG4/kappa
B8: humanized antibody huE1A9C8A7-V9 (antibody, human IgG4 S228P, kappa, V domains shown)
VH: B3 VH with S30T, M37V, K67R, K74T
VL: B3 VL
notes: Human IgG4/kappa
B9: humanized antibody huE1A9C8A7-V10 (antibody, human IgG4 S228P, kappa, V domains shown)
VH: B3 VH with S30T, M37V, A68V, K74T
VL: B3 VL
notes: Human IgG4/kappa
B10: humanized antibody huE1A9C8A7-V11 (antibody, human IgG4 S228P, kappa, V domains shown)
VH: B3 VH with S30T, M37V, V72R, K74T
VL: B3 VL
notes: Human IgG4/kappa

Assays:
[1] = target: T1, human PD-1 expressed on GS-J2/PD-1 cells (Genscript) (human, UniProt Q15116 25-288); assay: cell-based or functional assay
[2] = target: T1, human PD-1 expressed on GS-J2/PD-1 …; assay: flow cytometry on GS-J2/PD-1 cells
Procedure: In specific, the 293F-mouse PD-1 cells and GS-J2/PD-1 cells were respectively harvested from cell culture flasks, washed twice and re-suspended in PBS containing 2% v/v Fetal Bovine Serum (FACS buffer). Then, 2×10⁵ cells per well were incubated in 96 well-plates with 100 μl of the anti-PD1 antibodies or controls at various concentrations for 40 minutes on ice. […] Following an incubation of 40 minutes at 4° C. in dark, cells were washed three times and re-suspended in FACS buffer. Fluorescence was measured using a Becton Dickinson FACS Canto II-HTS equipment and plotted against antibody concentrations. Data was analyzed using GraphPad Prism software and EC₅₀ values were reported.
For the cell-based binding FACS, R-Phycoerythrin AffiniPure Goat Anti-human IgG Fcγ fragment specific (Cat#:109-115-098, Jackson ImmunoResearch) was used for the humanized antibodies, with 1:1000 dilution in FACS buffer, 100 μl/well.

[3] = target: T2, recombinant human PD-1-his protein (Cat#:10377-H08H, Sino biological Inc.) (human, UniProt Q15116 25-167); assay: SPR (Biacore), protocol of Example 2
T2 construct: Bought protein used as analyte in the Biacore tests; not shown: his tag

[4] = target: T3, recombinant mouse PD-1-his protein (Cat#:50124-M08H, Sino Biological Inc) (mouse, UniProt Q02242 25-167); assay: SPR (Biacore), protocol of Example 2
T3 construct: Bought protein used in Biacore and indirect ELISA; not shown: his tag
T3 sequence (looked up): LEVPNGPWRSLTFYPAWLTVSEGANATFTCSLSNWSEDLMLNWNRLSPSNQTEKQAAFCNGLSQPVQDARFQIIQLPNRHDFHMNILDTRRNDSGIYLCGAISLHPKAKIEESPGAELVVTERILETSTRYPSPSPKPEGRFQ

[5] = target: T4, cynomolgus PD-1-his protein (Cat#:PD1-05223, Acro biosystems Inc.) (cynomolgus, UniProt B0LAJ3 25-170); assay: indirect ELISA on coated cynomolgus PD-1-his
T4 construct: Bought protein used in Biacore and indirect ELISA; also called monkey PD-1; Cyno PD-1

[6] = target: T5, human PD-1-his protein prepared in-house (human, UniProt Q15116 25-167, biotin-labeled (sites not given)); assay: capture ELISA, antibody captured, biotin human PD-1-his detected
T5 construct: also called biotin labeled human PD-1-his
Procedure: Briefly, 96-well micro plates were coated with 100 μl 2 μg/ml AffiniPure Goat Anti-Mouse IgG F(ab′)₂ fragment specific (Cat#:115-005-072, Jackson lmmunoResearch) or Goat-anti-human IgG (Cat#:109-005-097, Jackson ImmunoResearch, for the positive control and negative control) in PBS overnight at 4° C. Plates were washed once with wash buffer (PBST, PBS+0.05% Tween-20) and then blocked with 200 μl/well blocking buffer (5% w/v non-fatty milk in PBST) for 2 hours at 37° C. […] After a final wash, plates were incubated with 100 μl/well TMB (Cat#:TMB-S-002, Innoreagents) at room temperature.
For the capture ELISA, 96-well plates were coated with 100 μl 2 μg/ml AffiniPure Goat Anti-Human IgG, Fcγ fragment specific (Cat#:109-005-098, Jackson Immunoresearch) instead of AffiniPure goat-anti-mouse IgG F(ab′)₂ fragment specific.

[7] = target: T6, human PD-1-his protein (Cat#:PD1-H5221, Acro biosystems Inc.) (human, UniProt Q15116 25-167); assay: BLI (Octet RED96), antibody captured on AHC sensor, human PD-1-his in solution, 1:1 fit
T6 construct: not shown: his tag
Procedure: (§1) Briefly, AHC biosensors (anti-human IgG Fe capture, from ForteBio) were presoaked with 10 mM glycine (pH 1.5) for 3 seconds, and then dipped in a well with running buffer (0.5% w/v BSA in PBST) for 3 seconds, the soaking and dipping steps were repeated for three times. […] A new baseline was run for 100 seconds in another well with running buffer. Then the sensors were dipped in a well with serially diluted human PD-1-his protein (Cat#:PD1-H5221, Acro biosystems Inc., starting at 100 nM with a two-fold serial dilution) in running buffer for 120 seconds, and then immersed in a baseline well for […]. Finally, sensors were presoaked with 10 mM glycine (pH 1.5) for 30 seconds, and then were dipped in a well with running buffer for 30 seconds. The association and dissociation curves were fit to a 1:1 Langmuir binding model using ForteBio Data Analysis 8.1 evaluation software.

[8] = target: T7, in house made human PD-1-Fc protein (human, biotin-labeled (sites not given)); assay: competitive ELISA: biotin human PD-1-Fc + antibody on coated human PD-L1-Fc (competitor)
T7 construct: also called biotin-labeled human PD-1-Fc
Procedure: Briefly, 100 μl human PD-L1-Fc protein (prepared in-house with SEQ ID NO: 28) at 2 μg/mL in carbonate/bicarbonate buffer (pH 9.6) was coated on 96-well micro plates overnight at 4° C., Plates were washed with wash buffer (PBS+0.05% w/v Tween-20, PBST), and blocked with 5% w/v non-fatty milk in PBST for 2 hours at 37° C. […] After incubation at 37° C. for 40 minutes, plates were washed using wash buffer. […] Plates were washed again using wash buffer. Finally, TMB was added and the reaction was stopped using 1M H₂SO₄. The absorbance was read on a microplate reader using dual wavelength mode with 450 nm for TMB and 630 nm as the reference wavelength, then the OD (450-630) values were plotted against antibody concentrations. Data was analyzed using Graphpad Prism software and IC₅₀ values were reported.

[9] = target: T5, human PD-1-his protein prepared in-house; assay: competitive ELISA: biotin human PD-1-his + antibody on coated Pembrolizumab (competitor)
Procedure: ELISA plates were washed once with wash buffer (PBST, PBS+0.05% Tween-20) and then blocked with 200 μl/well blocking buffer (5% w/v non-fatty milk in PBST) for 2 hours at 37° C. […] After incubation at 37° C. for 40 minutes, plates were washed using wash buffer, added and incubated with 100 μl/well Peroxidase Streptavidin for 40 minutes at 37° C. Plates were washed again using wash buffer. Finally, TMB was added and the reaction was stopped using 1M H₂SO₄. The absorbance was read on a microplate reader using dual wavelength mode with 450 nm for TMB and 630 nm as the reference wavelength, and the OD (450-630) values were plotted against antibody concentrations. Data was analyzed using Graphpad Prism software and IC₅₀ values were reported.

[10] = target: T6, human PD-1-his protein (Cat#:PD1-H5221, …); assay: BLI (Octet RED96), antibody captured on AHC sensor, human PD-1-his in solution, 1:1 fit (second run)
Procedure: as §1

[11] = target: T7, in house made human PD-1-Fc protein; assay: blocking FACS: biotin human PD-1-Fc + antibody on GS-C2/PD-L1 cells (competitor: cell-surface human PD-L1)
Procedure: GS-C2/PDL1 cells were harvested from cell culture flasks at the log phase, washed twice and re-suspended in PBS containing 2% v/v Fetal Bovine Serum (FACS buffer). GS-C2/PD-L1 cells, 0.6×10⁵ cells per welt, were incubated in 96 well-plates with 100 the antibody/PD1-Fc mixture for 40 minutes at 4° C. Cells were washed twice with FACS buffer, added with 100 R-Phycoerythrin Streptavidin (1:500 dilution in FACS buffer, Cat#:016-110-084, Jackson Immunoresearch), and incubated for 40 minutes at 4° C. in dark. Cells were washed twice and re-suspended in FACS buffer. Fluorescence was measured using a Becton Dickinson FACS Canto II-HTS equipment. Data was analyzed using Graphpad Prism software and IC₅₀ values were reported.

[12] = target: T6, human PD-1-his protein (Cat#:PD1-H5221, …); assay: BLI (Octet RED96), supernatant antibody captured on AHC sensor, human PD-1-his in solution, 1:1 fit
Procedure: as §1

Row | Binder | Kd [12] [nM] | koff [12] [s⁻¹] | kon [12] [M⁻¹ s⁻¹] | further results
1 | B1 |  |  |  | Cell-based functional assay (EC50, nM) [1]: 7.45 nM; EC50 [2]: 0.67 nM; Kd [3]: 1.11 nM; koff [3]: 0.000645 s⁻¹; kon [3]: 580000 M⁻¹ s⁻¹; Kd [4]: 162 nM; koff [4]: 0.027 s⁻¹; kon [4]: 167000 M⁻¹ s⁻¹; EC50 [5]: 0.85 nM; EC50 [6]: 0.21 nM; Kd [7]: 1.32 nM; koff [7]: 0.000316 s⁻¹; kon [7]: 239000 M⁻¹ s⁻¹; IC50 [8]: 0.38 nM; IC50 [9]: 0.61 nM; Kd [10]: 2.18 nM; koff [10]: 0.000597 s⁻¹; kon [10]: 274000 M⁻¹ s⁻¹; IC50 [11]: 0.57 nM
2 | B2 | 1.01 | 0.000213 | 211000 | Cell-based functional assay (EC50, nM) [1]: 9.3 nM; EC50 [2]: 0.66 nM; EC50 [5]: 0.9 nM; EC50 [6]: 0.21 nM; IC50 [8]: 0.35 nM; IC50 [9]: 0.54 nM; IC50 [11]: 0.54 nM
3 | B3 | 1.54 | 0.000317 | 206000 | 
4 | B4 | 1.49 | 0.000294 | 197000 | 
5 | B5 | 1.49 | 0.00027 | 182000 | 
6 | B6 | 1.84 | 0.000428 | 233000 | 
7 | B7 | 1.5 | 0.000356 | 237000 | 
8 | B8 | 1.63 | 0.000413 | 253000 | 
9 | B9 | 1.59 | 0.000385 | 242000 | 
10 | B10 | 1.53 | 0.000296 | 194000 | 

Reference: US20230331848A1 (BIOSION, published 2023)
